Data on four molecules can be found in patent USRE47150 (Bayer, dated 2018).

For test [1], the target named is T1, human tissue factor pathway inhibitor (TFPI) (human, UniProt P10646 29-304, limits assumed).
T1 construct: bought; also called hTFPI; human TFPI
T1 sequence (looked up): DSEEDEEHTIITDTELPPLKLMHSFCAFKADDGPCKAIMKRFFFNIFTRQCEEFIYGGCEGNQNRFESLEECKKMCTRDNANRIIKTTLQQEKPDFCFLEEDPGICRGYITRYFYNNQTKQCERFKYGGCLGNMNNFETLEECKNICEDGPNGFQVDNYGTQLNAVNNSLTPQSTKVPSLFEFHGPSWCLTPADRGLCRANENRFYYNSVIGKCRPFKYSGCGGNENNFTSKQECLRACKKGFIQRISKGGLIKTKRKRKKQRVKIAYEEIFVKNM
In words: competitive ELISA.

Test [2] addresses T2, mouse tissue factor pathway inhibitor (TFPI) (mouse, UniProt O54819 29-289, limits assumed).
T2 construct: bought; also called mTFPI; murine TFPI
T2 sequence (looked up): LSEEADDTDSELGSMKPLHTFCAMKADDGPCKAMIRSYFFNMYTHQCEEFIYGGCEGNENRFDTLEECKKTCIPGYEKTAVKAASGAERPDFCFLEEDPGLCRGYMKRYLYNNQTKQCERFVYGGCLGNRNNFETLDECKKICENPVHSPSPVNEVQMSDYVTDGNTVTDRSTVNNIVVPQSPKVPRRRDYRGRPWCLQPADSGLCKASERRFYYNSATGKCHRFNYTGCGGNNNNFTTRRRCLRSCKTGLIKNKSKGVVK
The test is described as follows: competitive ELISA.

Test [3] concerns the target T1, human tissue factor pathway inhibitor …. In words: SPR, TFPI immobilized.
The target in test [4] is T2, mouse tissue factor pathway inhibitor …. In words: SPR, TFPI immobilized.
Test [5] has as its target T3, recombinant TFPI of the FXa restoring assay (human, mouse or rat; not specified for Tables 9 and 10). In words: cell-based or functional assay.
Test [6] concerns the target T3, recombinant TFPI of the FXa restoring …. In words: cell-based or functional assay. This is another data set of the same source.
Test [7] concerns the target T1, human tissue factor pathway inhibitor …. In words: competitive ELISA. This is another data set of the same source.
Test [8] has as its target T2, mouse tissue factor pathway inhibitor …. In words: competitive ELISA. This is another data set of the same source.
Test [9] deals with T1, human tissue factor pathway inhibitor …. In words: SPR, TFPI immobilized. The source holds these as a separate data set.
Test [10] has as its target T2, mouse tissue factor pathway inhibitor …. In words: SPR, TFPI immobilized. The source holds these as a separate data set.

Where two headings read alike, the source gives them in different places.

B1: 2A8 HC_K99L (Fab, V domains shown)
VH: QVQLVESGGGLVQPGGSLRLSCAASGFTFRSYGMSWVRQAPGKGLEWVSSIRGSSSSTYYADSVKGRFTISRDNSKNTLYLQMNSLRAEDTAVYYCARLYRYWFDYWGQGTLVTVSS
VL: DIELTQPPSVSVAPGQTARISCSGDNLRNYYAHWYQQKPGQAPVVVIYYDNNRPSGIPERFSGSNSGNTATLTISGTQAEDEADYYCQSWDDGVPVFGGGTKLTVLG
notes: also called 2A8-9
For the molecule B1, the variant/wild-type in test [1] turned out to be 13.5 ratio. Moreover, in test [2], the variant/wild-type was found to be 10.8 ratio. Moreover, in [3], the Improvement was 7.22 fold, the equilibrium dissociation constant (Kd) was 0.309 nM, the off-rate (koff) was 0.000803 s⁻¹ and the kon was found to be 2.6e+06 M⁻¹ s⁻¹. Moreover, in test [4], the Improvement stood at 7.2 fold, the Kd came to 0.488 nM, the off-rate (koff) worked out at 0.000759 s⁻¹ and the kon amounted to 1.56e+06 M⁻¹ s⁻¹. Moreover, in [5], the “IC50, FXa restoring assay” value was 0.181 µg/mL and the “Improvement vs parental, FXa restoring assay” value stood at 3.9 fold. Also, in test [6], the “EC50, FXa restoring assay” value came out at 1 nM and the “Improvement vs parental 2A8, FXa restoring assay” value (“Improvement vs parental 2A8” below) turned out to be 7.9 fold.

B2: 2A8-143 (HC S35D+S55R+K99L/LC Y48F+N51V+D91L+V96W) (Fab, V domains shown)
VH: QVQLVESGGGLVQPGGSLRLSCAASGFTFRSYGMDWVRQAPGKGLEWVSSIRGSRSSTYYADSVKGRFTISRDNSKNTLYLQMNSLRAEDTAVYYCARLYRYWFDYWGQGTLVTVSS
VL: DIELTQPPSVSVAPGQTARISCSGDNLRNYYAHWYQQKPGQAPVVVIFYDVNRPSGIPERFSGSNSGNTATLTISGTQAEDEADYYCQSWLDGVPWFGGGTKLTVLG
For B2, in test [7], the variant/HC_K99L stood at 17.8 ratio. Besides, in test [8], the variant/HC_K99L turned out to be 13.4 ratio. Also, in [9], the KD fold improvement worked out at 50.9 fold, the Kd was 0.0364 nM, the koff was found to be 0.000105 s⁻¹ and the kon came out at 2.88e+06 M⁻¹ s⁻¹. This molecule also showed a KD fold improvement in test [10] of 48.5 fold. Moreover, in test [6], the “EC50, FXa restoring assay” value was 0.5 nM and the “Improvement vs parental 2A8” value came to 15.8 fold.

B3: 2A8-200 (HC S35D+S55R+K99L/LC Y48F+N51V+D91W) (Fab, V domains shown)
VH: QVQLVESGGGLVQPGGSLRLSCAASGFTFRSYGMDWVRQAPGKGLEWVSSIRGSRSSTYYADSVKGRFTISRDNSKNTLYLQMNSLRAEDTAVYYCARLYRYWFDYWGQGTLVTVSS
VL: DIELTQPPSVSVAPGQTARISCSGDNLRNYYAHWYQQKPGQAPVVVIFYDVNRPSGIPERFSGSNSGNTATLTISGTQAEDEADYYCQSWWDGVPVFGGGTKLTVLG
As for B3, the variant/HC_K99L in test [7] was found to be 19.7 ratio. In test [8], this molecule gave a variant/HC_K99L of 17.4 ratio. In [9], the KD fold improvement was found to be 53.7 fold, binding was characterised by a dissociation constant (Kd) of 0.0344 nM, the koff was found to be 9.88e-05 s⁻¹ and the kon is 2.87e+06 M⁻¹ s⁻¹. The same molecule yielded a KD fold improvement in test [10] of 55.4 fold. Also, in test [6], the “EC50, FXa restoring assay” value was determined as 0.81 nM and the “Improvement vs parental 2A8” value worked out at 9.7 fold.

B4: 2A8-127 (HC S35D+K99L/LC Y48F+N51V+G56D+V96W) (Fab, V domains shown)
VH: QVQLVESGGGLVQPGGSLRLSCAASGFTFRSYGMDWVRQAPGKGLEWVSSIRGSSSSTYYADSVKGRFTISRDNSKNTLYLQMNSLRAEDTAVYYCARLYRYWFDYWGQGTLVTVSS
VL: DIELTQPPSVSVAPGQTARISCSGDNLRNYYAHWYQQKPGQAPVVVIFYDVNRPSDIPERFSGSNSGNTATLTISGTQAEDEADYYCQSWDDGVPWFGGGTKLTVLG
With B4, in test [7], the variant/HC_K99L turned out to be 18.8 ratio. The molecule further came in with a variant/HC_K99L in [8] of 18.7 ratio. In [9], this molecule yielded a KD fold improvement of 22 fold, a dissociation constant (Kd) of 0.0841 nM, a koff of 0.000141 s⁻¹ and a kon of 1.68e+06 M⁻¹ s⁻¹. For the same molecule, the KD fold improvement in [10] worked out at 18.5 fold. For the same molecule, in test [6], the “EC50, FXa restoring assay” value stood at 0.44 nM and the “Improvement vs parental 2A8” value was determined as 18.2 fold.
